Measurements reported in the supplement of paper PMC9170038.

tested on: MS2 coat protein; experiment: apparent KD of MS2 coat protein; higher = weaker reporter binding; settings: Eterna round: R107; input ligand: theophylline 2 mM
Summary of the method: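 Designed RNA switches were transcribed on-chip from Illumina sequencing clusters. SNAP-549-labelled MS2 coat protein was titrated onto them in twofold steps from 0.7 or 1.5 nM to 3 µM in 100 mM Tris-HCl pH 7.5, 80 mM KCl, 4 mM MgCl2, either without or with constant ligand. Apparent KD reflects the per-design median of normalised cluster binding-curve fits.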

Row | Sequence | apparent KD of MS2 coat protein
1 | UACUUGCUGACGGCCGCCACUAGAACAUGAGGAUCACCCAUGUACGGCGGCCGUCAUGGGUGGACUAGGACCGGGUCAGCAAGAU [(Trp1)-(Ms2)-(T)'-(M)'-(Trp2)_Design6] | 13.9 nM
2 | UUUACAUGAGGAUCACCCAUGUGCCAUGAUACCAGACAUGAAAAUGUCCCUUGGCAGCAUGGGUGUAGCGUCGGGAAACCGACGC [Kohoutovice] | 909 nM
3 | AAAACUCAUGGCUUAUAUCCGUGUCUCGAAGGAGCGUACAGCGGUACAGGUAGGUCGCGAGACAUGAGGAUCACCCAUGUGUAAA [XArg-A 20 V1&2 original #dotplot2>1] | 1.46 nM
4 | UACUUGCUGACGGCCGCCACUAGAACAUGAGGAUCACCCAUGUAUGGCGGCCGUCAUGGGUGGACUAGGACCGGGUCAGCAAGAU [(Trp1)-(Ms2)-(T)'-(M)'-(Trp2)_Design7] | 11.7 nM
5 | UAUCGUCAGACGGCCGCCACUAGAACAUGAGGAUCACCCAUGUACCCGGUCCAUUCCUCAUUAACUAGGACCGGGUCUGACGAAU [(Trp1)-(Ms2)-(T)'-(M)'-(Trp2)_Design13] | 131 nM
6 | AAAUAAAUACAUGAGGAUCACCCAUGUGAAGGAGCGCCCGUUAGGGCAGGUAGGUCGCACAUGAAUAACUCCGCGCGAAAGCGCA [MAT - Exclusion Arginine A - Mod of Eli - D10] | 52.6 nM

same assay, conditions: Eterna round: R107; input ligand: tryptophan 2.4 mM

Row | Sequence | apparent KD of MS2 coat protein
7 | UUAAUCAUAUAUGAAAACAUAUAUGCAGAAGGAGCGUGAUAAAACACAGGUAGGUCGCUGAAGGGAACAUGAGGAUCACCCAUGU [AstrosSSArgA#2] | 32.4 nM
8 | UUCAGCUAGUCGGCCGCCACUACACGAGGAUCACCCGUGUUCCUAAAACACUGCUUCGGCAGUGGUAGGACCGGGACUAGCUGAG | 123 nM
9 | AUUGGGUUAUCAGAUACCAGACUAUUCUAGACAUGAGGAUCACCCAUGUAUUGGGUUUUCGUCCCUUGGCAGCUGUUAAGUUUAA [JR_SSTheophyB_Sub005] | 165 nM
10 | AACAUGAGGAUCACCCAUGUCUGAACUGAAGGAGCGCUAAAUAAGGCAGGUAGGUCGCGGAAUUUUGUGUAUAUAUAUAUAUGGG [9.G] | 24.3 nM
11 | ACGUCUCGUUUACUCGUGGGUUAGCUCGAUACCAGUAUUCAAACUUACCCUUGGCAGCGACAUGAGGAUCACCCAUGUGCGAAGA [XTheo A #23] | 17.5 nM
12 | GCACAAGAUGGAAGGAGCGCUGGUAAAAGUCACAUGAGGAUCACCCAUGUGCUCCUUGCCGAGCAGGUAGGUCGCCAUCUUGUGC [SSAB NP+V+V2 #4] | 29.8 nM
13 | UCACAUGAGGAUCACCCAUGUACAGGCGAUACCAGCCGUACAUUGGGCCCUUGGCAGCGCACCGAGACCUUUUAAAGCACUUCGG [Er] | 34.7 nM
14 | UAACAUGAGGAUCACCCAUGUAUAGUCGAUACCAGCUCAAGGGAGAGCCCUUGGCAGCGACACUGGUAUCCAUGGGUGUGGAUAC [(Ms2)-(Theo)-(T)'-(M)'-(T)''_Design3] | 69.8 nM
15 | AUAAUGGGUUUCGGACUAUCAUGGAAUGAUACCAGAUACUUAGAAAUCCCUUGGCAGCAUGAGGACAUGAGGAUCACCCAUGUAU [Th A Ex t1] | 71.4 nM
16 | GGAGCUACGUCGGCCGCCACUAGCGGUAAUUACGUGUACAUGAGGAUCACCCAUGUAAUAUGGACUAGGACCGGGACGUAGCUCC [Salmon] | 12.2 nM
17 | UUCAGCUAGUCGGCCGCCACUACAAGAGGAUCACCCUUGUAAUCCUAACACUGCUUCGGCAGUGGUAGGACCGGGACUAGCUGAG | 20.1 nM
18 | GUAAUGAUAAGAAGGAGCGUCGAAAAUGGGUAAACAUGAGGAUCACCCAUGUAAAGGGAACGACAGGUAGGUCGCUUAUUAUUAC [AstromonsSSArgB#21] | 210 nM
19 | UAUAUAUGGAUGGAUACCAGCAGAGAAAACGUUUAUCCUAACAUGAGGAUCACCCAUGUAUGCCCUUGGCAGCUGUUUAUAUAUA [8.J] | 24.3 nM
20 | CUCCCGUGGUCGGCCGCCACUGGAGGCCUUGCGCGACAUGAGGAUCACCCAUGUGGGCCCGGCGUCAGGACCGGGAUCGCGUGAG [#1 Same State - Tryptophan B Attempt #11 (HarryS)] | 15.6 nM
21 | AUGUUUGUGUGAGAUACCAGUGAGGCCACAUGAGGAUCACCCAUGUCCCUCACUCCGGCCCACCCUUGGCAGCUCUUAUAGUAAA [Exclusion Theophylline B GF 25] | 10.4 nM
22 | UAUCCACAUGAGGAUCACCCAUGUAGGGAAGGAGCGGUGAUUUCACCAGGUAGGUCGCCUUACUGAGGAGAGCCGGUGGAAUCGU [Exclusion - Arginine A (Freestyle 31)] | 31.6 nM
23 | GACAUGAGGAUCACCCAUGUUUGCUAUGAAGGAGCGUCGGAAAUGACAGGUAGGUCGCAUAGUAGGCCUUGUAUUUUGUGUGUUU [EAA #8] | 10.5 nM

Row | Sequence | apparent KD of MS2 coat protein
24 | GUCUCUGGGAGAAGGAGCGUGAAGACAUGAGGAUCACCCAUGUAGAGGCGCCGACGGCGUUCGCAGGUAGGUCGCUCCCAGAGAC [#1 Same State - Arginine B Attempt #18 (HarryS)] | 14 nM
25 | AGAAUACAUGUUUUAAUACGGAAAACUGAUACCAGUGUAUCUAUUCACCCUUGGCAGCAGAGACAUGAGGAUCACCCAUGUAUUA [JR_Nu_SSTheophyA_Sub019] | 46.6 nM
26 | ACAUGAGGAUCACCCAUGUAACAACGGGAAGGAGCGCCAAACAAGGCAGGUAGGUCGCCCACAUGAGGAUCACCCAUGUGUUGGG [Exclusion Arginine A GF 27] | 28.8 nM
27 | UGUAUGUGAUUUGAUACCAGACCAGCGGGUGUUACUUGAGGAACACCCAAGUAGGUUUGGGUCCCUUGGCAGCAAAUCGCAUACU [SS Theo B #24 Ms9] | 79 nM
28 | CACAUGAGGAUCACCCAUGUCUGAACUGAAGGAGCGCUAAACAAGGCAGGUAGGUCGCGGAAUUUUGUGUGCAUAUGCACACGGG [9.R] | 17.6 nM
29 | GUCACACAGUAGGAUACCAGCGUGGCUUAUCCCUGAUCGUACAUGAGGAUCACCCAUGUCCGCCCUUGGCAGCCUCCUGCUCGGA [theeternabot_exclusion_MS2_Theo_B_33] | 11.9 nM
30 | UAUUAUAACCGAAGGAGCGGGAAAGAUGAUUUUUAAUAUUAACAUGAGGAUCACCCAUGUACCCAGGUAGGUCGCGGAUAUUAUU [Default title] | 19 nM
31 | ACCUACACGGAGACGUGUAGGAGUAAUGAUACCAGCAUGGAGACAUGCCCUUGGCAGCGUUACAUGAGGAUCACCCAUGUAGUGC [ETHA #5] | 12.9 nM
32 | AAAAUAUACGGAAGGAGCGUGUAAGAUUAAGAACAUGAGGAUCACCCAUGUUUUAAGGGAACACAGGUAGGUCGCCGUAUAUAAA [11.N] | 11.8 nM
33 | UACUUGCUGACGGCCGCCACUAGAACAUGAGGAUCACCCAUGUACGGCGGCCGUCAUGGGUGGACUAGGACCGGGUCAGCAAGAU [(Trp1)-(Ms2)-(T)'-(M)'-(Trp2)_Design6] | 13.2 nM
34 | UUUACAUGAGGAUCACCCAUGUGCCAUGAUACCAGACAUGAAAAUGUCCCUUGGCAGCAUGGGUGUAGCGUCGGGAAACCGACGC [Kohoutovice] | 14 nM
35 | AAAACUCAUGGCUUAUAUCCGUGUCUCGAAGGAGCGUACAGCGGUACAGGUAGGUCGCGAGACAUGAGGAUCACCCAUGUGUAAA [XArg-A 20 V1&2 original #dotplot2>1] | 0.526 nM
36 | UGUAUGUGAUUUGAUACCAGACCAACUGGUAAAACAUGAGGAUCACCCAUGUAAACUUGGGUCCCUUGGCAGCAAAUCGCAUACU [SSTheo B #22] | 82.7 nM
37 | AGAACUUUGGUGGAUACCAGCUUCUGGCCAUCCUUCAAAUACAUGAGGAUCACCCAUGUUAGCCCUUGGCAGCCAACAUAGACUG [theeternabot_exclusion_MS2_Theo_B_44] | 21.6 nM
38 | AUCACUGUGAAAGAUACCAGCGCCCUACCUAUCUUCUGUUACAUGAGGAUCACCCAUGUUCGCCCUUGGCAGCUUGAGAUGGAUC [theeternabot_exclusion_MS2_Theo_B_11] | 44.9 nM
39 | AAAUAAAUACAUGAGGAUCACCCAUGUGAAGGAGCGCCCGUUAGGGCAGGUAGGUCGCACAUGAAUAACUCCGCGCGAAAGCGCA [MAT - Exclusion Arginine A - Mod of Eli - D10] | 35.8 nM
